Experiments:
[1] = molecular target: T1, Zn2+-stabilised Ab40 oligomers (UniProt P05067 672-711); experiment: ITC, fit of double subtracted integrated peaks
T1 construct: domain: Ab1-40; Oligomers made by incubating Ab40 with ZnCl2 for 20 hours at 20 C

[2] = molecular target: T1, Zn2+-stabilised Ab40 oligomers; experiment: ITC, DesAb-O injected into Ab40 oligomers, 25 C
[3] = molecular target: T2, Ab42 species in hippocampus protein extracts of J20 mice (PDGF-APPSw,Ind) (human); experiment: indirect ELISA on hippocampus protein extracts of J20 mice, normalised to wild-type mice
T2 construct: Target present in crude hippocampus extracts coated on ELISA wells; 6E10 detects total Ab in the same extracts; also called Ab42 oligomers formed in vivo in a mouse model of AD

[4] = molecular target: T3, human Ab42 species in protein extracts of GMC101 C. elegans worms (human); experiment: indirect ELISA on C. elegans protein extracts, N2 worms as reference
T3 construct: Target present in crude worm protein extracts coated on ELISA wells; also called NIAD-4 negative, toxic Ab42 species; Ab42 oligomers formed in vivo
T3 sequence (peptide, as listed by the source): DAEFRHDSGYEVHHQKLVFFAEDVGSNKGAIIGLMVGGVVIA

T1 sequence (P05067 671-711 limits assumed): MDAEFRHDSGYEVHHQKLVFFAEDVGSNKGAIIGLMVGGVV
T2 sequence (peptide, as listed by the source): as the sequence (peptide, as listed by the source) above

- DH (ITC fit) [1]: -12700 cal/mol
- Kd [1]: 440 nM
- Kd [2]: ~500 nM
- binding result [3]: binds
- binding result [4]: binds
B1: DesAb-O (VHH)
VHH: EVQLVESGGGLVQPGGSLRLSCAASGFNIKDTYIGWVRRAPGKGEEWVASIYPTNGYTRYADSVKGRFTISADTSKNTAYLQMNSLRAEDTAVYYCAAGSESAFGRAEEEAAAWGQGTLVTVSS
notes: Rationally designed single-domain antibody (VH domain), expressed in E. coli, purified by Ni2+ chromatography and detected with an anti-6X His tag antibody; also called DesAb-0; Des-Ab-0

— WO2021032966A1 (dated 2021)
